From article PMC11481871, “Discovery of GuaB inhibitors with efficacy against Acinetobacter baumannii infection” (mBio, 2024)

Columns and labels:
[1] = target: the molecule itself; test: crystal structure; S. aureus GuaBΔCBS (27 mg/mL) with 5 mM IMP, vapor diffusion at room temperature, 0.1 M bicine pH 9.0, 0.1 M NaCl, 30% PEG550 MME; crystals soaked with inhibitor; space group I4, one molecule in the asu
[2] = target: the molecule itself; test: crystal structure; E. coli GuaBΔCBS (28 mg/mL) with 5 mM IMP, vapor diffusion at room temperature, 0.1 M bicine pH 9.0, 20% PEG 6000; crystals soaked with inhibitor; space group I4, one molecule in the asu
[3] = target: the molecule itself; test: crystal structure; A. baumannii GuaBΔCBS (21 mg/mL) with 5 mM IMP, vapor diffusion at room temperature, 0.1 M HEPES pH 7.5, 20% isopropanol, 10% PEG4000; crystals soaked with inhibitor; space group P21, eight copies in the asu

B1: S. aureus GuaBΔCBS (W2-F488_ΔE92-R219) (enzyme)
chain: WESKFAKESLTFDDVLLIPAQSDILPKDVDLSVQLSDKVKLNIPVISAGMDTVTESKMAIAMARQGGLGVIHKNMGVEEQADEVQKVKRSLLVAAAIGISKDTDIRAQKLVEAGVDVLVIDTAHGHSKGVIDQVKHIKKTYPEITLVAGNVATAEATKDLFEAGADIVKVGIGPGSICTTRVVAGVGVPQITAIYDCATEARKHGKAIIADGGIKFSGDIIKALAAGGHAVMLGSLLAGTEESPGATEIFQGRQYKVYRGMGSLGAMEKGSNDRYFQEDKAPKKFVPEGIEGRTAYKGALQDTIYQLMGGVRAGMGYTGSHDLRELREEAQFTRMGPAGLAESHPHNIQITKESPNYSF
notes: Crystallised with IMP and soaked with G1, G2 or G8; one molecule in the asymmetric unit, the tetramer arises from the fourfold axis of space group I4; also called S.a; GuaB; source: E. coli BL21 (DE3) Gold, purified (HisTrap FF, Superdex200 size-exclusion; same protocol as A. baumannii GuaBΔCBS)
stoichiometry N [1]: 4

B2: E. coli GuaBΔCBS (L2-S488_ΔE90-R217) (enzyme, Escherichia coli, UniProt P0ADG7 2-488, looked up)
chain: LRIAKEALTFDDVLLVPAHSTVLPNTADLSTQLTKTIRLNIPMLSAAMDTVTEARLAIALAQEGGIGFIHKNMSIERQAEEVRRVKKHLRVGAAVGAGAGNEERVDALVAAGVDVLLIDSSHGHSEGVLQRIRETRAKYPDLQIIGGNVATAAGARALAEAGCSAVKVGIGPGSICTTRIVTGVGVPQITAVADAVEALEGTGIPVIADGGIRFSGDIAKAIAAGASAVMVGSMLAGTEESPGEIELYQGRSYKSYRGMGSLGAMSKGSSDRYFQSDNAADKLVPEGIEGRVAYKGRLKEIIHQQMGGLRSCMGLTGCGTIDELRTKAEFVRISGAGIQESHVHDVTITKESPNYRLGS
notes: GuaB (inosine-5'-monophosphate dehydrogenase) of Escherichia coli, residues L2-S488 with the CBS domains (E90-R217) deleted; Crystallised with IMP and soaked with G1, G2 or G8; one molecule in the asymmetric unit, the tetramer arises from the fourfold axis of space group I4; also called E.c; GuaB; source: E. coli BL21 (DE3) Gold, purified (HisTrap FF, Superdex200 size-exclusion; same protocol as …)
stoichiometry N [2]: 4

B3: A. baumannii GuaB with CBS domain deletion (M1-G488_ΔM93-R201) (enzyme)
chain: MLTIVQEALTFDDVLLLPAYSTVLPKDVSLKTRLTRGIYLNIPLVSAAMDTVTESRMAIAMAQNGGIGILHKNMDIAAQAAEVRRVKKFEAGKAESYPNSCKDDLGRLRVGAAVGTGADTPSRVEALVEAGVDVIVVDTAHGHSAGVIERVRWVKQNFPQVQVIGGNIATGDAALALLDAGADAVKVGIGPGSICTTRIVAGIGMPQISAIDSVASALKDQIPLIADGGIRFSGDMAKAIGAGASTIMVGSLLAGTEEAPGEVEFFQGRYYKAYRGMGSLGAMAGATGSADRYFQDSKAGAEKLVPEGIEGRVPYKGPMGNIVHQMMGGLRSSMGYTGSAVIEDLRQNAKFVKITSAGMSESHVHDVTITKEAPNYRVG
notes: cloned into a modified pET52b vector; Eight copies in the asymmetric unit (octamer of two tetramers); also called A. baumannii GuaBΔCBS; GuaBΔCBS; source: E. coli BL21 (DE3) Gold, purified (HisTrap FF, Superdex200 size-exclusion)
stoichiometry N [3]: 8
